Consider seven molecules from publication PMC10195817, “Autophagy receptor NDP52 alters DNA conformation to modulate RNA polymerase II transcription” (Nature Communications, 2022).

“And” between values parts separate entries of the source, which are not always exact repeats. Identical values can stand only once.

Data set [1] concerns the molecule itself. As to the kind of experiment: SEC-MALS; 100 ul at 1 mg/ml (NDP52-FL, CoCoA) or 5 mg/ml (NNDP52, CNDP52, ZFs); Superdex 200 (30 x 1 cm); 50 mM Tris pH 7.5, 150 mM NaCl, 1 mM DTT; room temperature. On the technique in general: In gel filtration, larger molecules generally elute earlier.
Data set [2] concerns the molecule itself. As to the kind of experiment: AFM imaging; purified protein adsorbed on mica (poly-L-lysine), imaged in liquid, PeakForce Tapping; monomers and oligomers counted by hand.
Data set [3] concerns the molecule itself. Nature of the data set: MST; RED-tris-NTA labelled protein at 50 nM, unlabelled protein of the same construct titrated from 10 uM (16-step serial dilution), PBS, 15 min at room temperature; Monolith NT.115; oligomerisation, step of the constant not told.
Data set [4] has as its target T1, NNDP52 (N-terminal truncated region of NDP52, amino acid residues 1-190) (UniProt Q13137 1-190).
T1 chain: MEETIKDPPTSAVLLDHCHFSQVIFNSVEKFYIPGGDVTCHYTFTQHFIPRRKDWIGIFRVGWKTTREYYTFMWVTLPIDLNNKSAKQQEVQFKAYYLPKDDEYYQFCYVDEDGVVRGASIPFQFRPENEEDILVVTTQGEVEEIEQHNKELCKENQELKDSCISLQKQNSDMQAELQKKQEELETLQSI
Nature of the data set: MST.

Data set [5] concerns the target T2, NDP52-FL (Human, UniProt Q13137 1-446).
T2 sequence: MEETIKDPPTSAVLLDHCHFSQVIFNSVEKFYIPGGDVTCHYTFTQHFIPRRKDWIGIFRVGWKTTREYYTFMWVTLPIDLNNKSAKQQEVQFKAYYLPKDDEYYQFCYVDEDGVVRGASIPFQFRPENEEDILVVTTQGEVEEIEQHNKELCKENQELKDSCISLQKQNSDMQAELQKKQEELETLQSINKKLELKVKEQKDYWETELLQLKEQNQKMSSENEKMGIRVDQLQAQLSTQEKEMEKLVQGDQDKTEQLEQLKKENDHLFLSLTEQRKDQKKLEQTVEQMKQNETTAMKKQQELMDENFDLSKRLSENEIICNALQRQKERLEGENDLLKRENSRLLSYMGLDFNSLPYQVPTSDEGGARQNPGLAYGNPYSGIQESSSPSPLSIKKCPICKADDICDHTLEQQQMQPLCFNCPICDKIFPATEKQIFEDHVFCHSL
Nature of the data set: fluorescence titration; Fluorescence: 100 nM DNA, 50 mM Tris-HCl pH 7.5, 150 mM NaCl, 1 mM DTT; EMSA: 50 mM Tris-HCl pH 7.5, 50 mM NaCl, 3 mM MgCl2, 5 min; temperature not stated. Conditions: protein: recombinant, tags: His-tag (pET151), chain copies: 2, blunt. On the technique in general: A gel shift assay detects complexes by their altered migration in electrophoresis.

The target in the next data set is T3, CoCoA (Human, UniProt Q9P1Z2 1-691).
T3 sequence: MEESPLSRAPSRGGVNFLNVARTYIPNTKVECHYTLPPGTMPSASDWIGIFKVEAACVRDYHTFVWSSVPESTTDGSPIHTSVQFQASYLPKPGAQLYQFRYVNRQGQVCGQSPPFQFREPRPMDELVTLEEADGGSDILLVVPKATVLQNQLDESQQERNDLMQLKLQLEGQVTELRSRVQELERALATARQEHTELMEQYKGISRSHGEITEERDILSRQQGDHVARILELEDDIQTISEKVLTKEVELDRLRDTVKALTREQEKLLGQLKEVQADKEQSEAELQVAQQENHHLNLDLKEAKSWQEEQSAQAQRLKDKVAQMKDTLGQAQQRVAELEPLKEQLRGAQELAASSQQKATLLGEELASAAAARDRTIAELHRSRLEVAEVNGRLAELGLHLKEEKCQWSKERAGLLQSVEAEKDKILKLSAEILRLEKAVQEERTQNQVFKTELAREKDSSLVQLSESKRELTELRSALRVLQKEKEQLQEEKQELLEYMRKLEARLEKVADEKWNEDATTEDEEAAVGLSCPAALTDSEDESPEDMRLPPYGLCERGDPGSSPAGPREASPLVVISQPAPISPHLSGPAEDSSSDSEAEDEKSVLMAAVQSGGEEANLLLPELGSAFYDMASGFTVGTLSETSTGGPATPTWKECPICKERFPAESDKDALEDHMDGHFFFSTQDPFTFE
As to the kind of experiment: fluorescence titration; high affinity; Fluorescence: 100 nM DNA, 50 mM Tris-HCl pH 7.5, 150 mM NaCl, 1 mM DTT; EMSA: 50 mM Tris-HCl pH 7.5, 50 mM NaCl, 3 mM MgCl2, 5 min; temperature not stated. Conditions: protein: recombinant, tags: His-tag (pET151), chain copies: 2, blunt.

In data set [6] the target is T2, NDP52-FL. Nature of the data set: fluorescence titration, competition; with and without ss40 competitor; Fluorescence: 100 nM DNA, 50 mM Tris-HCl pH 7.5, 150 mM NaCl, 1 mM DTT; EMSA: 50 mM Tris-HCl pH 7.5, 50 mM NaCl, 3 mM MgCl2, 5 min; temperature not stated. Conditions: protein: recombinant; tags: His-tag (pET151); chain copies: 2; label: 3' FAM (called FITC in Methods) on strand 1 for fluorescence; blunt.

The target of data set [7] is T4, NDP52-FL (full-length NDP52/CALCOCO2), Q13137.
T4 chain: T2 sequence
As to the kind of experiment: MST; RED-tris-NTA labelled protein at 50 nM, unlabelled protein of the same construct titrated from 10 uM (16-step serial dilution), PBS, 15 min at room temperature; Monolith NT.115; oligomerisation, step of the constant not told. Conditions: remark: other sources report otherwise.

The target of data set [8] is T4, NDP52-FL (full-length NDP52/CALCOCO2), …. Nature of the data set: mass photometry; NDP52-FL alone, 50 mM Tris-HCl pH 7.5, 150 mM NaCl, OneMP mass photometer; results say 100 nM, methods say diluted to 10 nM. Conditions: remark: other sources report otherwise.
For data set [9] the target is unchanged. Nature of the data set: SEC-MALS; 100 ul at 1 mg/ml (NDP52-FL, CoCoA) or 5 mg/ml (NNDP52, CNDP52, ZFs); Superdex 200 (30 x 1 cm); 50 mM Tris pH 7.5, 150 mM NaCl, 1 mM DTT; room temperature. Conditions: remark: other sources report otherwise.
For data set [10] the target is unchanged. Nature of the data set: AFM imaging; purified protein adsorbed on mica (poly-L-lysine), imaged in liquid, PeakForce Tapping; monomers and oligomers counted by hand. Conditions: remark: other sources report otherwise.
The data set “MST” concerns the molecule itself. As to the kind of experiment: MST.
[11] abbreviates: label: 3' FAM (called FITC in Methods) on strand 1.
Setting [12] is: label: 3' FAM (called FITC in Methods) on strand 1 for fluorescence.

B1: CNDP52 (C-terminal region of NDP52, amino acid residues 365-446) (domain or fragment, UniProt Q13137 365-446, looked up)
chain: EGGARQNPGLAYGNPYSGIQESSSPSPLSIKKCPICKADDICDHTLEQQQMQPLCFNCPICDKIFPATEKQIFEDHVFCHSL
notes: NDP52/CALCOCO2, a section of the coiled-coil and both zinc finger domains, amino acid residues 365-446; source: E. coli BL21 DE3, purified (HisTrap FF, Superdex 200 SEC)
As usually defined, the stoichiometry N is a count of units in the complex or per binding partner. What is called Kd is the free concentration of one partner at which half of the binding sites on the other are occupied at equilibrium, for simple one-to-one binding. Take B1: the entries for the “stoichiometry N” value in [1] and in data set [2] were 3 and 2, respectively. Besides, the dissociation constant Kd in [3] is 0.05 ± 0.006 µM; in data set [4], 0.11 µM.

B2: ZFs (the two zinc finger domains of NDP52, amino acid residues 380-446) (domain or fragment, UniProt Q13137 380-446, looked up)
chain: YSGIQESSSPSPLSIKKCPICKADDICDHTLEQQQMQPLCFNCPICDKIFPATEKQIFEDHVFCHSL
notes: NDP52/CALCOCO2, zinc finger domains ZF1 and ZF2, amino acid residues 380-446; also called ZFs domain; source: E. coli BL21 DE3, purified (HisTrap FF, Superdex 200 SEC)
As to B2, in [1], the “stoichiometry N” value was 2 and 3. The molecule also had an equilibrium dissociation constant (Kd) in data set [3] of 0.18 ± 0.017 µM.

B3: ds15 (dsDNA)
DNA 1: TTAGTTGTTCTCTGG
DNA 2: CCAGAGAACAACTAA
As to B3, the Kd in the data set with NDP52-FL [5] (setting [11]) is under 0.1 µM. Further, the binding result with CoCoA (setting [11]) is “binds”.

B4: ds40 (dsDNA)
DNA 1: TTAGTTGTTCGTAGTGCTCGTCTGGCTCTGGATTACCCGC
DNA 2: GCGGGTAATCCAGAGCCAGACGAGCACTACGAACAACTAA
Consider B4, for which the Kd in the data set with NDP52-FL [5] (setting [12]) and in the data set with NDP52-FL [6] was under 0.1 µM throughout. In the data set with CoCoA (setting [12]), the binding result was “binds”.

B5: CoCoA (recombinant) (natural protein, UniProt Q9P1Z2 1-691, looked up)
chain: T3 sequence
notes: CoCoA, member of the CALCOCO family, recombinant; source: E. coli BL21 DE3, purified (HisTrap FF, Superdex 200 SEC)
B5: the “stoichiometry N” value in [1] was 2. For the same molecule, the Kd in data set [3] is 0.085 µM.

B6: NDP52-FL (full-length NDP52/CALCOCO2), Q13137 1-446 (natural protein)
chain: T2 sequence
On to B6, for which, in [7], the Kd was 0.21 µM. The stoichiometry N is 2 and 3 in data set [8]; 2 and 3 and 4 in data set [9]; 2 in data set [10]. Also, the percent of molecules in an oligomeric state in data set [10] was 15%.

B7: NNDP52 (N-terminal truncated region of NDP52, amino acid residues 1-190) (domain or fragment, UniProt Q13137 1-190, looked up)
chain: T1 chain
notes: NDP52/CALCOCO2, SKICH domain and part of the coiled-coil region, amino acid residues 1-190; also called N-terminal region of NDP52; source: E. coli BL21 DE3, purified (HisTrap FF, Superdex 200 SEC)
Regarding B7, in data set [1], the “stoichiometry N” value worked out at 2. In the data set “MST”, binding was characterised by a dissociation constant (Kd) of 0.17 µM.
